Measurements taken from PMC6421407, “Activation of GCN2 by the ribosomal P-stalk” (Proceedings of the National Academy of Sciences of the …, 2019).

How the values were obtained:
[1] = target: human general control nonderepressible 2 (GCN2), full-length, StrepII-tagged (human) (UniProt Q9P2K8)
[2] = target: the molecule itself; assay: SEC-MALS; purified GCN2 in solution; 392 kDa measured against 384 kDa theoretical for a homodimer

ribosomes purified from rabbit reticulocyte lysate (from UniProt G1SPK4 1-318; P19943 1-44; G1TT27 1-257) (complex)
EC50 of stimulation of eIF2α phosphorylation by GCN2, titration of ribosomes [1]: 25 nM | fold stimulation of eIF2α phosphorylation by GCN2, titration of ribosomes [1]: 20 fold

B1: human general control nonderepressible 2 (GCN2), full-length, StrepII-tagged (enzyme, UniProt Q9P2K8 1-1649, looked up)
chain: MAGGRGAPGRGRDEPPESYPQRQDHELQALEAIYGADFQDLRPDACGPVKEPPEINLVLYPQGLTGEEVYVKVDLRVKCPPTYPDVVPEIELKNAKGLSNESVNLLKSRLEELAKKHCGEVMIFELAYHVQSFLSEHNKPPPKSFHEEMLERRAQEEQQRLLEAKRKEEQEQREILHEIQRRKEEIKEEKKRKEMAKQERLEIASLSNQDHTSKKDPGGHRTAAILHGGSPDFVGNGKHRANSSGRSRRERQYSVCNSEDSPGSCEILYFNMGSPDQLMVHKGKCIGSDEQLGKLVYNALETATGGFVLLYEWVLQWQKKMGPFLTSQEKEKIDKCKKQIQGTETEFNSLVKLSHPNVVRYLAMNLKEQDDSIVVDILVEHISGVSLAAHLSHSGPIPVHQLRRYTAQLLSGLDYLHSNSVVHKVLSASNVLVDAEGTVKITDYSISKRLADICKEDVFEQTRVRFSDNALPYKTGKKGDVWRLGLLLLSLSQGQECGEYPVTIPSDLPADFQDFLKKCVCLDDKERWSPQQLLKHSFINPQPKMPLVEQSPEDSEGQDYVETVIPSNRLPSAAFFSETQRQFSRYFIEFEELQLLGKGAFGAVIKVQNKLDGCCYAVKRIPINPASRQFRRIKGEVTLLSRLHHENIVRYYNAWIERHERPAGPGTPPPDSGPLAKDDRAARGQPASDTDGLDSVEAAAPPPILSSSVEWSTSGERSASARFPATGPGSSDDEDDDEDEHGGVFSQSFLPASDSESDIIFDNEDENSKSQNQDEDCNEKNGCHESEPSVTTEAVHYLYIQMEYCEKSTLRDTIDQGLYRDTVRLWRLFREILDGLAYIHEKGMIHRDLKPVNIFLDSDDHVKIGDFGLATDHLAFSADSKQDDQTGDLIKSDPSGHLTGMVGTALYVSPEVQGSTKSAYNQKVDLFSLGIIFFEMSYHPMVTASERIFVLNQLRDPTSPKFPEDFDDGEHAKQKSVISWLLNHDPAKRPTATELLKSELLPPPQMEESELHEVLHHTLTNVDGKAYRTMMAQIFSQRISPAIDYTYDSDILKGNFSIRTAKMQQHVCETIIRIFKRHGAVQLCTPLLLPRNRQIYEHNEAALFMDHSGMLVMLPFDLRIPFARYVARNNILNLKRYCIERVFRPRKLDRFHPKELLECAFDIVTSTTNSFLPTAEIIYTIYEIIQEFPALQERNYSIYLNHTMLLKAILLHCGIPEDKLSQVYIILYDAVTEKLTRREVEAKFCNLSLSSNSLCRLYKFIEQKGDLQDLMPTINSLIKQKTGIAQLVKYGLKDLEEVVGLLKKLGIKLQVLINLGLVYKVQQHNGIIFQFVAFIKRRQRAVPEILAAGGRYDLLIPQFRGPQALGPVPTAIGVSIAIDKISAAVLNMEESVTISSCDLLVVSVGQMSMSRAINLTQKLWTAGITAEIMYDWSQSQEELQEYCRHHEITYVALVSDKEGSHVKVKSFEKERQTEKRVLETELVDHVLQKLRTKVTDERNGREASDNLAVQNLKGSFSNASGLFEIHGATVVPIVSVLAPEKLSASTRRRYETQVQTRLQTSLANLHQKSSEIEILAVDLPKETILQFLSLEWDADEQAFNTTVKQLLSRLPKQRYLKLVCDEIYNIKVEKKVSVLFLYSYRDDYYRILF
notes: General control nonderepressible 2 (GCN2), human, full length; Homodimer by SEC-MALS (392 kDa measured, 384 kDa theoretical); also called construct A; full-length GCN2
stoichiometry N [2]: 2
